T1: 4H145-bA
T1 chain: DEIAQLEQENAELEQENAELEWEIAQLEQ

T2: 4H2619-bA
T2 chain: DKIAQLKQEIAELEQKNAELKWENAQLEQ

T3: 4H2691-bA
T3 chain: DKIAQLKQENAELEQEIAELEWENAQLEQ

T4: 4H3070-bA
T4 chain: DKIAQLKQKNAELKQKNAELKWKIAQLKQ

T5: 4H342-bA
T5 chain: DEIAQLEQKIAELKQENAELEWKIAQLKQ

T6: 4H3632-bA
T6 chain: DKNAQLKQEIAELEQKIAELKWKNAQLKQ

T7: 4H496-bA
T7 chain: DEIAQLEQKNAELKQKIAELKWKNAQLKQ

T8: P2-AA-1HGe-A
T8 chain: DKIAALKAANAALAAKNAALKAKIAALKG

T9: P2-AA-1HGe-D
T9 chain: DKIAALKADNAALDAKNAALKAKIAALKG

T10: P2-AA-1HGe-M
T10 chain: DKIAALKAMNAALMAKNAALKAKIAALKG

T11: P2-AA-1HGe-Q
T11 chain: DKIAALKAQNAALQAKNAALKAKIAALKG

T12: P2-AA-1HGe-T
T12 chain: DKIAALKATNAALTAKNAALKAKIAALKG

T13: P2-AA-1HGe-W
T13 chain: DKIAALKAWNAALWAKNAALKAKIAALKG

T14: P2-AA
T14 chain: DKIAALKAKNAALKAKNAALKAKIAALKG


Assays:
4H145-bA = molecular target: T1, 4H145-bA; experiment: two-hybrid library CCNG1; settings: mean of both orientations;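 further: natural log of median RNA to DNA barcode read ratio; higher means stronger binding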
4H2619-bA = molecular target: T2, 4H2619-bA; experiment: two-hybrid library CCNG1;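 further: natural log of median RNA to DNA barcode read ratio; higher means stronger binding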
4H2691-bA = molecular target: T3, 4H2691-bA; experiment: two-hybrid library CCNG1;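 further: natural log of median RNA to DNA barcode read ratio; higher means stronger binding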
4H3070-bA = molecular target: T4, 4H3070-bA; experiment: two-hybrid library CCNG1; settings: mean of both orientations;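 further: natural log of median RNA to DNA barcode read ratio; higher means stronger binding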
4H342-bA = molecular target: T5, 4H342-bA; experiment: two-hybrid library CCNG1
4H3632-bA = molecular target: T6, 4H3632-bA; experiment: two-hybrid library CCNG1
4H496-bA = molecular target: T7, 4H496-bA; experiment: two-hybrid library CCNG1
P2-AA-1HGe-A = molecular target: T8, P2-AA-1HGe-A; experiment: two-hybrid library CCmax; settings: mean of both orientations
P2-AA-1HGe-D = molecular target: T9, P2-AA-1HGe-D; experiment: two-hybrid library CCmax; settings: mean of both orientations
P2-AA-1HGe-M = molecular target: T10, P2-AA-1HGe-M; experiment: two-hybrid library CCmax; settings: mean of both orientations
P2-AA-1HGe-Q = molecular target: T11, P2-AA-1HGe-Q; experiment: two-hybrid library CCmax; settings: mean of both orientations
P2-AA-1HGe-T = molecular target: T12, P2-AA-1HGe-T; experiment: two-hybrid library CCmax; settings: mean of both orientations
P2-AA-1HGe-W = molecular target: T13, P2-AA-1HGe-W; experiment: two-hybrid library CCmax; settings: mean of both orientations
P2-AA = molecular target: T14, P2-AA; experiment: two-hybrid library CCmax; settings: mean of both orientations

| interaction score (4H145-bA) | interaction score (4H2619-bA) | interaction score (4H2691-bA) | interaction score (4H3070-bA) | interaction score (4H342-bA) | interaction score (4H3632-bA) | interaction score (4H496-bA) | interaction score (P2-AA-1HGe-A) | interaction score (P2-AA-1HGe-D) | interaction score (P2-AA-1HGe-M) | interaction score (P2-AA-1HGe-Q) | interaction score (P2-AA-1HGe-T) | interaction score (P2-AA-1HGe-W) | interaction score (P2-AA) | Binder |
| --- | --- | --- | --- | --- | --- | --- | --- | --- | --- | --- | --- | --- | --- | --- |
| -0.795 | -0.672 | -0.624 | 2.5 | -1.12 | -1.06 | -1.06 |  |  |  |  |  |  |  | DEIAQLEQENAELEQENAELEWEIAQLEQ [4H145-bA] |
|  |  |  |  |  |  |  | 2.28 | 2.01 | 2.29 | 1.9 | 1.98 | 2.3 | 2.14 | DEIAALEAMNAALMAENAALEAEIAALEG [P1-AA-1HGe-M] |

Reference: article PMC10397247
